Source: the supplement of paper PMC12764529
± gives the half width of the 95% confidence interval.

Columns and labels:
[1] = folding stability dG unfold from chymotrypsin proteolysis; higher = more stable
Summary of the method: (§1)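 Unfolding free energy was derived, per protease or combined, by relating Bayesian-fitted K50 values from sequencing counts to a sequence-predicted unfolded-state K50 and a shared folded-state K50. The underlying digests exposed cysteine-free mini-proteins under 80 residues, in a PA-tagged cDNA display construct, to trypsin and chymotrypsin at 11 threefold-diluted concentrations and to a no-protease condition. A filter kept only designs with AlphaFold2 dimer inter-PAE above 15.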

[2] = folding stability dG unfold from trypsin proteolysis; higher = more stable
Summary of the method: as §1

[3] = folding stability dG unfold (combined trypsin and chymotrypsin); higher = more stable
Summary of the method: as §1

Sequence | folding stability dG unfold [1] | folding stability dG unfold [2] | folding stability dG unfold [3]
SAGGSEKKVLVLKFRHPENDKPLFSVRIVLEKPPEDSYKAKIELLDLPEDYVLSPEAIKAILEALKSAGGSA [r2_7_TrMRF] | 2.58 ± 0.11 kcal/mol | 2.05 ± 0.036 kcal/mol | 2.3 ± 0.11 kcal/mol
SAGGPDWKTVEVEIQVKDPEDRPEAIEEAEEWAQELAENNPGYKIKGVDVEIWPHNGWYQIRIPITVESAGG [r13_305_TrROS] | 1.01 ± 0.21 kcal/mol | 0.733 ± 0.1 kcal/mol | 0.79 ± 0.19 kcal/mol
SMKEVEKREFPDGTTVTFSKSSSPVITIKVTTYSPVPNTSELSSSESTYTFPLPPGKPLTLEEVLKKVLESA [r9_614_JUSTAS] | 1.38 ± 0.21 kcal/mol | 0.54 ± 0.035 kcal/mol | 1.02 ± 0.13 kcal/mol
SAGGSYLDEVREKILKEYPLKPGEPKEIEITVPLPSGRTVKIKIPVTVDPKTGKVEAKFEVLEETKESAGGS [r16_634_JUSTAS] | 1.22 ± 0.028 kcal/mol | 0.395 ± 0.033 kcal/mol | 0.934 ± 0.074 kcal/mol
SAGGTIYIWFPMKVDEAVDLAKELAENKDWKIEIYNGGKEHEIELDKIEPVPPENVRVYIEIEPKPDSAGGS [r16_628_TrROS] | 1.64 ± 0.082 kcal/mol | 0.423 ± 0.041 kcal/mol | 1.26 ± 0.097 kcal/mol
SGSPDELEVVESEETVNIPPEELEAKYGIKVPENSTVVIKTKTLKPPSGNDIVEPEIKIYDPVTNEWIELSA [r9_349_JUSTAS] | -0.474 ± 0.27 kcal/mol | -0.537 ± 0.13 kcal/mol | -0.47 ± 0.25 kcal/mol
SGLLEKFLKEAEEWIKKLGLKVKPGEKVEIPIPFENNLIAKIEFYPGEKIIKVVLIGENKPVEYKFKIEKSA [r9_426_TrMRF] | 2.32 ± 0.17 kcal/mol | 1.53 ± 0.16 kcal/mol | 1.88 ± 0.45 kcal/mol
SAGGSAGGGGMTVTITVPVPSPTATYTVSFPSSSATASFTAEPGGPLTITVNAPSVTSITVTVSSAGGSAGG [r6_808_JUSTAS] | 3.98 ± 0.053 kcal/mol | 3.03 ± 0.1 kcal/mol | 3.63 ± 0.11 kcal/mol
SERLKLKITIKNANGETYEVEIEFDLETNELTIKVKPVPALPPVTEKRVVKKDGKLVEETRTVLLSEEDLSA [r9_587_TrROS_Hall] | 1.83 ± 0.1 kcal/mol | 1.02 ± 0.16 kcal/mol | 1.74 ± 0.38 kcal/mol
SAGGSAGGSMNPEVPYAKVTLELKLPDGTTATLTLEVPLEEIPKVIEELKKKGYEILSIKIEPSAGGSAGGS [r12_986_JUSTAS] | 5.02 ± 0.13 kcal/mol | 4.17 ± 0.23 kcal/mol | 5.07 ± 0.27 kcal/mol
SAGASVEQWSLTSVEVTELPGPEVVVPMTARLPDGTEVVMSGVVGPGSVTLTSPDGSTSTLAIPPALASAGG [r19_84_JUSTAS] | 0.734 ± 0.045 kcal/mol | 1.2 ± 0.023 kcal/mol | 1.03 ± 0.04 kcal/mol
SAGGSAGGSAKPTYRVLVKNEDGEVLEAEVKVVDGKVEVTVNGKVYTFPKGAKIEIVKIEPVSAGGSAGGSA [r18_144_TrROS_Hall] | 2.92 ± 0.054 kcal/mol | 3.34 ± 0.2 kcal/mol | 3.08 ± 0.11 kcal/mol
SAGGSAGGSAGKKKYKIVSIEIERNKDGNSLTVKIKLENGKELTLTFPTEEDLKNLKIKASAGGSAGGSAGG [r11_711_TrROS_Hall] | 3.104 ± 0.028 kcal/mol | 1.59 ± 0.1 kcal/mol | 2.78 ± 0.075 kcal/mol
SAMKYTITVKGDIESVRNFLLDKLDFDIEVSSTPDGTTVITITMDEEKVSELKELLKAHPNFPTTVNKESAG [r14_521_JUSTAS] | 4.12 ± 0.044 kcal/mol | 2.75 ± 0.086 kcal/mol | 3.83 ± 0.11 kcal/mol
SAGGSAGGDYERDPNNGKMKMKPKVEPPPPPKIIQIQIPFPEEADDFMNELQDNGYPIYLSPGGSAGGSAGG [r6_872_TrROS] | 0.179 ± 0.14 kcal/mol | 1.29 ± 0.18 kcal/mol | 0.745 ± 0.3 kcal/mol
SAPIDIDLERDPEPGRLKATVEFPWPNGWMHRMTFDLQWPRIKVEHYPFKDGEPEPQEIEIPIPANAKVSAG [r14_64_TrROS] | 0.426 ± 0.24 kcal/mol | 0.0882 ± 0.17 kcal/mol | 0.338 ± 0.19 kcal/mol
SAGGSAGGSAMIVKEFVTYDPSTGTRTRTTVTLELYDSPEGGAVVVLEEEVDPVGPLPPLESAGGSAGGSAG [r3_397_JUSTAS] | 0.000665 ± 0.17 kcal/mol | 0.704 ± 0.062 kcal/mol | 0.323 ± 0.12 kcal/mol
SAGGSAGGGPPNAPLKIYTDDGSVNLLNLDGQPLLVTVHPDATAEITLPDGTKITVPIPPGANLSAGGSAGG [r6_105_TrMRF] | 0.628 ± 0.054 kcal/mol | 1.26 ± 0.072 kcal/mol | 0.977 ± 0.069 kcal/mol
SAGGSAKIPVMFMIESPEQIIELVDEFAPPGHEVKVKIDNVEPFPMREDGEERPYYMFRVTIEFPPSAGGSA [r15_95_TrROS] | 1.84 ± 0.16 kcal/mol | 1.64 ± 0.07 kcal/mol | 1.78 ± 0.14 kcal/mol
SAGGSAGGSAGMTPGPAPRPKVTVEPSLSEVPEDDSIVTTTTVTFPDTGETTSSTTTSSASAGGSAGGSAGG [r17_31_JUSTAS] | 1.24 ± 0.051 kcal/mol | 0.337 ± 0.064 kcal/mol | 1 ± 0.084 kcal/mol
SAGGSAGGSAGTMTAEEIAKALGAKVVEVYPDKVVIEIEVDGKKYRITINEDGEVTVEEVSAGGSAGGSAGG [r17_252_TrROS_Hall] | 4.47 ± 0.15 kcal/mol | 2.62 ± 0.11 kcal/mol | 4.02 ± 0.21 kcal/mol

Sequence | folding stability dG unfold [1] | folding stability dG unfold [2] | folding stability dG unfold [3]
SAGGSAGGSAGGYFIRINNGRTFPFPSPEDAEEIVKTIARPFGHPDMTIEIYRMPPEQFPSAGGSAGGSAGG [r7_839_TrROS] | -0.1 ± 0.24 kcal/mol | -0.0675 ± 0.22 kcal/mol | 0.0194 ± 0.18 kcal/mol
SAMTITVTAPPGYTLNVTVTLAGGVPLTRTFSPSQSIDITIPEGTPFSLTVTTTAPGGEVATSTLTVPLSAG [r14_568_JUSTAS] | 3.171 ± 0.018 kcal/mol | 3.19 ± 0.12 kcal/mol | 3.19 ± 0.094 kcal/mol
SAGGMTASSTTLPPSGITSQTTTDPATGVTTTTTRYPDGTVTTTTTTALPPPAAATTTTTTALPGSAAASAG [r5_766_JUSTAS] | 1.68 ± 0.07 kcal/mol | 1.93 ± 0.12 kcal/mol | 1.77 ± 0.086 kcal/mol
SAGGSAGGSTIMFKVDSPDELIDKIKIPPGFRVEIMQTPDRYYVMIRPPPSPEQMAKREKNNGSAGGSAGGS [r12_274_TrROS] | 3.16 ± 0.23 kcal/mol | 3.35 ± 0.42 kcal/mol | 3.26 ± 0.41 kcal/mol
SAYLMFMIPIKNDEITIKIPVPPGYYVRIFVFFPDGMEPRTIPPDEKVKIKIPKPGAWIMIMVYPAEEMSAG [r14_882_TrROS] | 5 ± 0.16 kcal/mol | 3.38 ± 0.12 kcal/mol | 4.41 ± 0.14 kcal/mol
SAGGSAGGSAGGMEYSISNVTTETFPEGNKTVTVETYTFDDGGTITVTKENGKVLEVNPKSAGGSAGGSAGG [r7_552_JUSTAS] | 0.586 ± 0.062 kcal/mol | -1.57 ± 0.56 kcal/mol | 0.135 ± 0.11 kcal/mol
SAGGSAAITFPSDKTATVLSEEYDPVKKTTTVKMKVGNKEVTATLSPDGTVTIKLPDGKEETYPVGSAGGSA [r15_111_JUSTAS] | 1.41 ± 0.016 kcal/mol | 1.18 ± 0.057 kcal/mol | 1.35 ± 0.099 kcal/mol
SAGGSAMSITISDISSVKNLTITETTPDGTPVTVTVNATTGSGPPTLTFTATTPGTGATTTTTTAFSAGGSA [r15_1006_JUSTAS] | -0.299 ± 0.099 kcal/mol | 0.693 ± 0.014 kcal/mol | 0.38 ± 0.051 kcal/mol
SAGGSAGGSAGALPFKVKVVEVEVDGDEVTVKVVAELPTGTATVELKLGGKLETLTISPVSAGGSAGGSAGG [r17_45_TrMRF] | 2.47 ± 0.13 kcal/mol | 1.49 ± 0.19 kcal/mol | 2.16 ± 0.24 kcal/mol
SAGGSVTLPDATVVKVPPSQDWQEHADRLAAEIREAGADYEVSVESTPDGSVLITITVPGRTWTMVTSAGGS [r16_771_JUSTAS] | 0.49 ± 0.077 kcal/mol | 1.15 ± 0.032 kcal/mol | 0.936 ± 0.03 kcal/mol
SAGGSAGGSAGMDIDILTETEVTRYPDGTVVTTTTTRDSSGEVLSTTTTTTTVTPATPAASAGGSAGGSAGG [r11_452_JUSTAS] | 2.6 ± 0.057 kcal/mol | 2.24 ± 0.15 kcal/mol | 2.47 ± 0.069 kcal/mol
SAKMYLVIIEIKKDGKTYKLIIIIPEEDENLTEEEILEKIRELAEKLNLEIEKIEVIPLEEAKKLLEELSAG [r14_953_TrROS_Hall] | 5.25 ± 0.13 kcal/mol | 3.66 ± 0.074 kcal/mol | 5.23 ± 0.13 kcal/mol
SAGGPNFIVKIRIPMRKYERENDPGGKPKWEPVEPQRVEITIIFKGPPEQAKQIREELENHGLEVEPISAGG [r13_452_TrROS] | 2.44 ± 0.098 kcal/mol | 1.65 ± 0.077 kcal/mol | 2.05 ± 0.18 kcal/mol
SAGGSAGGSAGGKKIIKVPLKNAEKIKKELKKKYKIKKVKIEKNKDGSKYIYIEVEKPKSAGGSAGGSAGGS [r10_1219_TrROS_Hall] | 1.69 ± 0.16 kcal/mol | 0.939 ± 0.071 kcal/mol | 1.5 ± 0.23 kcal/mol
SAGMTTTVTLKAPDGTTATVTIPPDGNAVMTIETPEGTSTRTVPVPADVSIEEILKEYPNYTIVSREAASAG [r5_259_JUSTAS] | 2.05 ± 0.021 kcal/mol | 1.26 ± 0.037 kcal/mol | 1.82 ± 0.041 kcal/mol
SAGGSAGGSAGMKLPEGWEIVAVYRDKETNKLYLIVRDTKTKKLLIVDLDTKKIISAEELSAGGSAGGSAGG [r11_268_TrROS_Hall] | 4.1 ± 0.13 kcal/mol | 3.63 ± 0.18 kcal/mol | 4.06 ± 0.1 kcal/mol
SAGGSAGGSAGGTLEAIKELAKDMPPGDKNIPIKIPDGKPYTIDVEMDPDGKMEIDIEPSAGGSAGGSAGGS [r10_1017_TrROS] | -0.634 ± 0.86 kcal/mol | 1.19 ± 0.041 kcal/mol | 0.466 ± 0.2 kcal/mol
SAGGMPKIVEIEILSEEYDPSTGVRTYTAKVTYPDGTEEVVTIPVDLTDGNATEEEVKKRVEELVLESAGGS [r16_221_JUSTAS] | 3.66 ± 0.11 kcal/mol | 3.95 ± 0.22 kcal/mol | 3.76 ± 0.13 kcal/mol
SAGGSAGGSAGGMTITVNGPTATITYPDGSVETIPLTSPEEFEALKAAHPDVEATPASPSAGGSAGGSAGGS [r10_1211_JUSTAS] | 1.21 ± 0.014 kcal/mol | 0.353 ± 0.047 kcal/mol | 0.967 ± 0.093 kcal/mol
SAGGSAGGPIVIKVKSLEEAKELVEKLAKELTPENVKVEIKEVFEPENSYYVVIEIKTASPEEESAGGSAGG [r6_72_TrMRF] | 2.51 ± 0.097 kcal/mol | 2.85 ± 0.14 kcal/mol | 2.65 ± 0.22 kcal/mol
SAGGSAGGGMTAEELAAKAIEEALKAGETVTVEIEVTNPNGETFTLELTLVVVDPDDPEALEALSAGGSAGG [r6_534_TrROS_Hall] | 1.29 ± 0.014 kcal/mol | 1.64 ± 0.057 kcal/mol | 1.49 ± 0.05 kcal/mol
